Assay results: PMC4627809, “Client Proteins and Small Molecule Inhibitors Display Distinct Binding Preferences for Constitutive and Stress-Induced HSP90 Isoforms and Their Conformationally Restricted Mutants” (PLoS ONE, 2015)

Target: T1, FLAG-HSP90α wild type (human, UniProt P07900 1-732)
T1 construct: HSP90α, stress-inducible cytosolic HSP90 isoform, encoded by HSP90AA1, human; The plasmid list names only pcDNA3-FLAG-HSP90α; the LUMIER methods call the protein 3XFLAG-tagged; also called HSP90α WT; 3XFLAG-HSP90α; source: HEK293, transfected, in lysate
Assay: LUMIER; HEK293 in 96-well plates co-transfected with NanoLuc-client and 3XFLAG-HSP90α or β; TGNET lysate on anti-FLAG antibody-coated plate 2 h at 4°C; NanoLuc read-out divided by anti-FLAG-HRP read-out = relative interaction strength
Settings: partners not purified

B1: NL-RHOBTB2/DBC2 (natural protein, UniProt Q9BYZ6 1-727, looked up)
chain: MDSDMDYERPNVETIKCVVVGDNAVGKTRLICARACNATLTQYQLLATHVPTVWAIDQYRVCQEVLERSRDVVDDVSVSLRLWDTFGDHHKDRRFAYGRSDVVVLCFSIANPNSLHHVKTMWYPEIKHFCPRAPVILVGCQLDLRYADLEAVNRARRPLARPIKPNEILPPEKGREVAKELGIPYYETSVVAQFGIKDVFDNAIRAALISRRHLQFWKSHLRNVQRPLLQAPFLPPKPPPPIIVVPDPPSSSEECPAHLLEDPLCADVILVLQERVRIFAHKIYLSTSSSKFYDLFLMDLSEGELGGPSEPGGTHPEDHQGHSDQHHHHHHHHHGRDFLLRAASFDVCESVDEAGGSGPAGLRASTSDGILRGNGTGYLPGRGRVLSSWSRAFVSIQEEMAEDPLTYKSRLMVVVKMDSSIQPGPFRAVLKYLYTGELDENERDLMHIAHIAELLEVFDLRMMVANILNNEAFMNQEITKAFHVRRTNRVKECLAKGTFSDVTFILDDGTISAHKPLLISSCDWMAAMFGGPFVESSTREVVFPYTSKSCMRAVLEYLYTGMFTSSPDLDDMKLIILANRLCLPHLVALTEQYTVTGLMEATQMMVDIDGDVLVFLELAQFHCAYQLADWCLHHICTNYNNVCRKFPRDMKAMSPENQEYFEKHRWPPVWYLKEEDHYQRARKEREKEDYLHLKRQPKRRWLFWNSPSSPSSSAASSSSPSSSSAVV
notes: E3-ubiquitin ligase RHOBTB2/DBC2; also called RHOBTB2 fused to NanoLuc luciferase; source: HEK293, transfected, in lysate; not shown: NanoLuc luciferase, N-terminal, kept
**Q.** With B1 as the binder, how does the “fold difference in relative interaction strength, HSP90α against HSP90β” value read?
**A.** ~3 fold
